Test [1] deals with T1, human MET (soluble analyte in Biacore) (human, UniProt P08581 25-932). Kind of test: SPR (Biacore 2000), antibody captured by anti-human antibody, human MET injected. Here is the method: (§1) The KD of monovalent version of 73R009, monovalent anti-MET antibody 5D5, and anti-MET/FZD8-Fc bispecific agent 315B6 were determined using a Biacore 2000 system from Biacore LifeSciences (GE Healthcare). A goat anti-human antibody (Invitrogen H10500) was coupled to a carboxymethyl-dextran (CM5) SPR chip using standard amine-based chemistry (NHS/EDC) and blocked with ethanolamine. Antibodies were diluted to a concentration of 10 μg/ml in HBS-P-BSA (0.01M HEPES pH7.4, 0.15M NaCl, 0.005% v/v Polysorbate 20, 10 μg/ml BSA) and captured onto the chip via the anti-human antibody. Human MET was serially diluted 2-fold from 300 nM to 37.5 nM in HBS-P-BSA and injected sequentially over the captured anti-MET antibodies. MET association and dissociation was measured at each concentration. After each antigen injection 5 μl of 100 mM H₃PO₄ was injected to remove the antigen-antibody complex and a subsequent injection performed. Kinetic data were collected over time and were fit using the simultaneous global fit equation to yield affinity constants (KD values) for each agent.
(§2) In addition, the bispecific agent 315B6 appeared to have stronger affinity for human MET than anti-MET antibody 5D5.
(In SPR one partner is held on a chip, and binding of the other changes the refractive index at the surface.)

Test [2] has as its target full-length human MET (FL-MET) on cells (human) (UniProt P08581). Kind of test: FACS competition, biotin-HGF on MET-transfected HEK-293T cells; antibody at 10 µg/ml.
The target is the same in test [3]. Description: FACS competition, biotin-HGF on MET-transfected HEK-293T cells; antibody at 0.16 µg/ml.
Test [4] has the same target. Description: FACS blocking assay: MET-transfected HEK-293T cells pre-incubated with the agent, then biotin-HGF (blocked ligand) + PE-streptavidin; % cells in gate P2.
Test [5] shares this target. Kind of test: FACS blocking assay: MET-transfected HEK-293T cells pre-incubated with the agent, then biotin-HGF (blocked ligand) + PE-streptavidin; inhibition versus the average of the two positive controls.
Test [6] shares this target. Kind of test: FACS blocking assay: MET-transfected HEK-293T cells pre-incubated with the agent, then biotin-HGF (blocked ligand) + PE-streptavidin; % cells in gate P2. This is another data set of the same source.
Test [7] shares this target. Description: FACS blocking assay: MET-transfected HEK-293T cells pre-incubated with the agent, then biotin-HGF (blocked ligand) + PE-streptavidin; inhibition versus the average of the two positive controls. The source holds these as a separate data set.
The target of test [8] is T1, human MET (soluble analyte in Biacore). Kind of test: SPR (Biacore 2000), agent captured by anti-human antibody, human MET injected. The procedure:
as §1, §2

The source of these data is patent US20160137744A1 (ONCOMED PHARMACEUTICALS, published 2016).

Like-named read-outs stand apart in the source and are kept apart here.

T1 sequence (P08581 25-932 limits assumed): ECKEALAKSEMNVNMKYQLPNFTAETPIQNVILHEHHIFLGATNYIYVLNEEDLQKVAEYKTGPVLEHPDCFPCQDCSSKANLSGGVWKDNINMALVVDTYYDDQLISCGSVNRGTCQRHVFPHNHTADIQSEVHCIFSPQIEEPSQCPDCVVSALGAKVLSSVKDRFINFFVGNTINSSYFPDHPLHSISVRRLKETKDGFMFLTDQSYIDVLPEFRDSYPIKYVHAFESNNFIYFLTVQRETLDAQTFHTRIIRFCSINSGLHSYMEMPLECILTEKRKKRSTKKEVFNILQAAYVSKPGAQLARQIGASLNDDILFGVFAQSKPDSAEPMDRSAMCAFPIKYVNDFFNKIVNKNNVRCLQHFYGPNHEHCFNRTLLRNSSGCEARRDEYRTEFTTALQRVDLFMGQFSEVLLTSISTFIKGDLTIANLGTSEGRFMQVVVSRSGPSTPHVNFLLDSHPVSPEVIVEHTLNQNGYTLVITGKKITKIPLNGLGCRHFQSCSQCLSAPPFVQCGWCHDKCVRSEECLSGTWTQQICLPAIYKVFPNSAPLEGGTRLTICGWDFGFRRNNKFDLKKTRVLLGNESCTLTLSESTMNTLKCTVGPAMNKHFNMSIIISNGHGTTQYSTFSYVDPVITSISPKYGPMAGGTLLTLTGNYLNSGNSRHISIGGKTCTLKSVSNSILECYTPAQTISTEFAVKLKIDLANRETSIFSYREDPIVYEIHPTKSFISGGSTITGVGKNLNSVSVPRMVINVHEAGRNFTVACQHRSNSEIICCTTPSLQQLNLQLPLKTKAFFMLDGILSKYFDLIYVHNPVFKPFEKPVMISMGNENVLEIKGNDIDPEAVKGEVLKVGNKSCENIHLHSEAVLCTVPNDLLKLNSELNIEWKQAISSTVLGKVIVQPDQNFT
full-length human MET (FL-MET) on cells (human), sequence (P08581 25-1390 limits assumed): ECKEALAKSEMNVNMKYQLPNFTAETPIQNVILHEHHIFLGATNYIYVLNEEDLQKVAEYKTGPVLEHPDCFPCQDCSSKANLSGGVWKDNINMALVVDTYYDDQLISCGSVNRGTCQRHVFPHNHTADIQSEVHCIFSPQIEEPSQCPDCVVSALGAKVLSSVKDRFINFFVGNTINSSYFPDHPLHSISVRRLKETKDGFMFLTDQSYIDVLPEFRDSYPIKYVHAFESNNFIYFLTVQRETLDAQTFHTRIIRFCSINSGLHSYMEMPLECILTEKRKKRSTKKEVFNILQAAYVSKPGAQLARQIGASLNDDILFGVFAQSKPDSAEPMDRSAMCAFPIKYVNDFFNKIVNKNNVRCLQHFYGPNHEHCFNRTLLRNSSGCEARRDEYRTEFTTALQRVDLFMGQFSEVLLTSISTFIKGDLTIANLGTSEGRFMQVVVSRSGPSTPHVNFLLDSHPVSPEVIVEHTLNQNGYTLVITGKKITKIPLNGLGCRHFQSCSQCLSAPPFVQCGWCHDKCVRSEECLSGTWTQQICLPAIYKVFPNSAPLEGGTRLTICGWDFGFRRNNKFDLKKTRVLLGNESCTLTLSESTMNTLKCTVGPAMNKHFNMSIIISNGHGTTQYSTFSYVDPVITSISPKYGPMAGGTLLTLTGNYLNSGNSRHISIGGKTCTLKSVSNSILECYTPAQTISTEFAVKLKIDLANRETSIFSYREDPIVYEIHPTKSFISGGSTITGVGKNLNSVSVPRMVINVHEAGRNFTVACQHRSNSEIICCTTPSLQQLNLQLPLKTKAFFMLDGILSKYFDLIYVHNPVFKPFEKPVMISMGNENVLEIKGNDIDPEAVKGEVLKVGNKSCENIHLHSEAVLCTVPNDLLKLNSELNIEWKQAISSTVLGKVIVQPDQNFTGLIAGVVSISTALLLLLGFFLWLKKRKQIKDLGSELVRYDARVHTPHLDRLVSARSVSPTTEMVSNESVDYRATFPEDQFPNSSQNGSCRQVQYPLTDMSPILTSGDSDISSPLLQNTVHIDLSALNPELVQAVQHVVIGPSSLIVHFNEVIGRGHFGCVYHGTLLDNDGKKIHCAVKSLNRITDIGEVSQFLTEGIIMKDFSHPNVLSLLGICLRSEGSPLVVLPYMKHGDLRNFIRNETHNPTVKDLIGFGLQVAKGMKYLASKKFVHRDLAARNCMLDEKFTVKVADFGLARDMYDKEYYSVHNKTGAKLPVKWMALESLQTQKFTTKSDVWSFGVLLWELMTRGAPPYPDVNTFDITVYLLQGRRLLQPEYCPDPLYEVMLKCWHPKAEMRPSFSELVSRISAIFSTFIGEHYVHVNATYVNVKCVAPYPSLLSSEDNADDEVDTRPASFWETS

For orientation: Kd means the concentration at which binding is half-saturated. Read a low Kd as higher affinity. With monovalent anti-MET antibody 5D5, the Kd in test [1] stood at 7.2 nM. In addition, in test [2], the percent reduction of HGF binding to MET was 70%. The molecule also returned a percent reduction of HGF binding to MET in test [3] of 28%. Moreover, in test [4], the % Binding of HGF at 0.16 ug/ml agent came out at 14.3%, the % Binding of HGF at 0.3 ug/ml agent is 10.6%, the % Binding of HGF at 0.625 ug/ml agent stood at 12% and the % Binding of HGF at 1.25 ug/ml agent turned out to be 8.54%. In test [4], the % Binding of HGF at 2.5 ug/ml agent came to 9.61%, the % Binding of HGF at 5 ug/ml agent was 6.67% and the % Binding of HGF at 10 ug/ml agent was determined as 6.31%. Further, in test [5], the % Inhibition of HGF binding at 0.3 ug/ml agent stood at 47%, the % Inhibition of HGF binding at 0.625 ug/ml agent is 40%, the % Inhibition of HGF binding at 1.25 ug/ml agent was found to be 57% and the % Inhibition of HGF binding at 2.5 ug/ml agent was determined as 52%. Also, in test [5], the % Inhibition of HGF binding at 5 ug/ml agent was 67%.

B1: monovalent version of anti-MET antibody 73R009 (antibody, part only; not given: monovalent constant regions and partner arm, V domains shown, not shown: another chain or arm of the molecule; a dimerising Fc or GST)
VH: QVQLQESGPGLVKPSETLSLTCTVTGTTITASYAWSWIRQPPGKGLEWMGYISYSGGTDYNPSLKSRITISRDTFKNQFSLKLSSVTAADTATYYCARKGAYWGQGTLVTVSS
VL: DIVLTQSPATLSASPGEKVTLTCSASSSVSSSYLYWYQQKPGQAPKLLIYSTSNLASGVPARFSGSGSGTSYSLTISSLEPEDFATYYCHQWSSYPYTFGGGTKLEIK
As to B1, in test [6], the % Binding of HGF at 0.16 ug/ml agent stood at 8.72%, the % Binding of HGF at 0.3 ug/ml agent came to 9.71%, the % Binding of HGF at 0.625 ug/ml agent was 8.03% and the % Binding of HGF at 1.25 ug/ml agent came to 7.7%. Besides, in test [6], the % Binding of HGF at 2.5 ug/ml agent was 7.44%, the % Binding of HGF at 5 ug/ml agent is 7.77% and the % Binding of HGF at 10 ug/ml agent was 5.51%. In test [7], the % Inhibition of HGF binding at 0.3 ug/ml agent is 52%, the % Inhibition of HGF binding at 0.625 ug/ml agent worked out at 60%, the % Inhibition of HGF binding at 1.25 ug/ml agent is 62% and the % Inhibition of HGF binding at 2.5 ug/ml agent is 63%. In addition, in test [7], the % Inhibition of HGF binding at 5 ug/ml agent came out at 61%. In test [1], this molecule registered a Kd of 1.4 nM. In test [2], this molecule returned a percent reduction of HGF binding to MET of 72%. Also, the percent reduction of HGF binding to MET in test [3] came to 56%.

B2: antibody 73R009 (bivalent "parental" antibody) (antibody, human IgG2, kappa, V domains shown)
VH: QVQLQESGPGLVKPSETLSLTCTVTGTTITASYAWSWIRQPPGKGLEWMGYISYSGGTDYNPSLKSRITISRDTFKNQFSLKLSSVTAADTATYYCARKGAYWGQGTLVTVSS
VL: DIVLTQSPATLSASPGEKVTLTCSASSSVSSSYLYWYQQKPGQAPKLLIYSTSNLASGVPARFSGSGSGTSYSLTISSLEPEDFATYYCHQWSSYPYTFGGGTKLEIKR
notes: Humanized, bivalent; also called humanized anti-MET monoclonal antibody
Consider B2, for which the Kd in test [1] was determined as 1.1 nM.

B3: anti-MET/FZD8-Fc bispecific agent 315B6 (bispecific antibody, human IgG2, kappa)
heavy: QVQLQESGPGLVKPSETLSLTCTVTGTTITASYAWSWIRQPPGKGLEWMGYISYSGGTDYNPSLKSRITISRDTFKNQFSLKLSSVTAADTATYYCARKGAYWGQGTLVTVSSASTKGPSVFPLAPCSRSTSESTAALGCLVKDYFPEPVTVSWNSGALTSGVHTFPAVLQSSGLYSLSSVVTVPSSNFGTQTYTCNVDHKPSNTKVDKTVERKCCVECPPCPAPPVAGPSVFLFPPKPKDTLMISRTPEVTCVVVDVSHEDPEVQFNWYVDGVEVHNAKTKPREEQFNSTFRVVSVLTVVHQDWLNGKEYKCKVSNKGLPAPIEKTISKTKGQPREPQVYTLPPSREKMTKNQVSLTCLVKGFYPSDIAVEWESNGQPENNYKTTPPMLKSDGSFFLYSKLTVDKSRWQQGNVFSCSVMHEALHNHYTQKSLSLSPGK
light: DIVLTQSPATLSASPGEKVTLTCSASSSVSSSYLYWYQQKPGQAPKLLIYSTSNLASGVPARFSGSGSGTSYSLTISSLEPEDFATYYCHQWSSYPYTFGGGTKLEIKRTVAAPSVFIFPPSDEQLKSGTASVVCLLNNFYPREAKVQWKVDNALQSGNSQESVTEQDSKDSTYSLSSTLTLSKADYEKHKVYACEVTHQGLSSPVTKSFNRGEC
chain: ASAKELACQEITVPLCKGIGYNYTYMPNQFNHDTQDEAGLEVHQFWPLVEIQCSPDLKFFLCSMYTPICLEDYKKPLPPCRSVCERAKAGCAPLMRQYGFAWPDRMRCDRLPEQGNPDTLCMDYNRTDLTTTKVDKTVERKSCVECPPCPAPPVAGPSVFLFPPKPKDTLMISRTPEVTCVVVDVSHEDPEVQFNWYVDGVEVHNAKTKPREEQFNSTFRVVSVLTVVHQDWLNGKEYKCKVSNKGLPAPIEKTISKTKGQPREPQVYTLPPSREEMTKNQVSLTCLVEGFYPSDIAVEWESNGQPENNYKTTPPMLDSDGSFFLYSELTVDKSRWQQGNVFSCSVMHEALHNHYTQKSLSLSPGK
notes: Heterodimer of a monovalent 73R009 arm (heavy + light) and a FZD8 Fri-Fc fusion arm; plasmids ATCC PTA-13609, PTA-13610, PTA-13611; also called bispecific anti-MET/FZD8-Fc agent
In turn, B3 had a Kd in test [8] of 1.8 nM. In other words, the single-digit nanomolar range.
